The source of these data is patent US20240400618A1 (GRIFOLS DIAGNOSTIC SOLUTIONS, published 2024).

Some targets named below: commercial RBD protein (SARS-CoV-2, UniProt P0DTC2 319-541); pxAM-FLS-A-TB-His (SARS-CoV-2, UniProt P0DTC2 15-1213); pxEBNCP14-tPa-FLS-CT-His (SARS-CoV-2, UniProt P0DTC2 16-1213); pxEBNCP16-IL2-FLS-CT-His (SARS-CoV-2, UniProt P0DTC2 16-1213); pxEBNCP1-His-TEV-S1 (SARS-CoV-2, UniProt P0DTC2 14-680); pxEBNCP2-tPa-His-TEV-S1 (SARS-CoV-2, UniProt P0DTC2 14-680); pxEBNCP3-S1-His (SARS-CoV-2, UniProt P0DTC2 15-681); pxEBNCP4-tPa-S1-His (SARS-CoV-2, UniProt P0DTC2 15-681); pxENB14-His-TEV-RBD (SARS-CoV-2, UniProt P0DTC2 319-541); pxENBCP17-FLS-CT-His-SBP (SARS-CoV-2, UniProt P0DTC2 15-1213); pxENBCP20-FLS-CT-His-TST (SARS-CoV-2, UniProt P0DTC2 15-1213).

Assay [1] addresses T1, pxENB9-FLS-CT-His (SARS-CoV-2, UniProt P0DTC2 15-1213).
Assay [2] deals with T2, pxENB17-RBD-His (SARS-CoV-2, UniProt P0DTC2 319-541).
Assay [3] addresses T2, pxENB17-RBD-His. Nature of the assay: BLI (Octet), ACE2 construct loaded on SA tips by its tag, RBD as analyte. (In general: BLI is a label-free optical method that tracks binding on a fibre tip over time.)
For assay [4], the target named is T3, pxENB1-His-TEV-FLS-TN (SARS-CoV-2, UniProt P0DTC2 14-1213).
The target in assay [5] is T4, pxENB2-His-TEV-FLS-CT (SARS-CoV-2, UniProt P0DTC2 14-1213).
For assay [6], the target named is T5, pxENB5-his-TEV-FLS (SARS-CoV-2, UniProt P0DTC2 14-1213).
The target in assay [7] is T6, pxENB8-FLS-TN-His (SARS-CoV-2, UniProt P0DTC2 15-1213).
Assay [8] addresses T1, pxENB9-FLS-CT-His. This is another data set of the same source.
Assay [9] addresses T7, pxENB12-FLS-His (SARS-CoV-2, UniProt P0DTC2 15-1213).
Assay [10] deals with T3, pxENB1-His-TEV-FLS-TN. The source holds these as a separate data set.
Assay [11] concerns the target T4, pxENB2-His-TEV-FLS-CT. The source holds these as a separate data set.
Assay [12] concerns the target T5, pxENB5-his-TEV-FLS. The source holds these as a separate data set.
The target of assay [13] is T6, pxENB8-FLS-TN-His. The source holds these as a separate data set.
The target of assay [14] is T1, pxENB9-FLS-CT-His. This is another data set of the same source.
For assay [15], the target named is T7, pxENB12-FLS-His. This is another data set of the same source.
The target of assay [16] is pxEBNCP15-mIgGHC-FLS-CT-His (SARS-CoV-2, UniProt P0DTC2 16-1213).
In assay [17] the target is pxENBEP17_TPA_Nuc(1-182)_Spike (15-1216, GAAS, PP)_10xHis (SARS-CoV-2).
In assay [18] the target is pxENBEP18_Spike_Nuc(1-182)_10xHis (SARS-CoV-2).
In assay [19] the target is T2, pxENB17-RBD-His. This is another data set of the same source.
In assay [20] the target is pxENBCP19-FLS-CT-His-StrepTagII (SARS-CoV-2, UniProt P0DTC2 15-1213).
In assay [21] the target is T2, pxENB17-RBD-His. The source holds these as a separate data set.
For assay [22], the target named is T1, pxENB9-FLS-CT-His. This is another data set of the same source.

Where two headings read alike, the source gives them in different places.

B1: pxEBNCP24_hACE2-AAA-p53-SBP (receptor)
chain: QSTIEEQAKTFLDKFNHEAEDLFYQSSLASWNYNTNITEENVQNMNNAGDKWSAFLKEQSTLAQMYPLQEIQNLTVKLQLQALQQNGSSVLSEDKSKRLNTILNTMSTIYSTGKVCNPDAPAECLLLEPGLNEIMANSLDYNERLWAWESWRSEVGKALRPLYEEYVVLKNEMARANHYEDYGDYWRGDYEVNGVDGYDYSRGQLIEDVEHTFEEIKPLYEHLHAYVRAKLMNAYPSYISPIGCLPAHLLGDMWGRFWTNLYSLTVPFGQKPNIDVTDAMVDQAWDAQRIFKEAEKFFVSVGLPNMTQGFWENSMLTDPGNVQKAVCHPTAWDLGKGDFRILMCTKVTMDDFLTAHHEMGHIQYDMAYAAQPFLLRNGANEGFHEAVGEIMSLSAATPKHLKSIGLLSPDFQEDNETEINFLLKQALTIVGTLPFTYMLEKWRWMVFKGEIPKDQWMKKWWEMKREIVGVVEPVPHDETYCDPASLFHVSNDYSFIRYYTRTLYQFQFQEALCQAAKHEGPLHKCDISNSTEAGQKLFNMLRLGKSEPWTLALENVVGAKNMNVRPLLNYFEPLFTWLKDQNKNSFVGWSTDWSPYADGGGSKPLDGEYFTLQIRGRERFEMFRELNEALELKDAQAGKEPGGGSGMDEKTTGWRGGHVVEGLAGELEQLRARLEHHPQGQREP
B1: the results for the Kd with pxENB9-FLS-CT-His [1] and with pxENB17-RBD-His [2] were 0.001 nM and 0.231 nM, respectively. In the assay with pxENB17-RBD-His [3], the “Response, shift in Wavelength (nm)” value was determined as 0.028 nm.

B2: pxEBNCP13_hACE2-AAA-SBP (receptor)
chain: QSTIEEQAKTFLDKFNHEAEDLFYQSSLASWNYNTNITEENVQNMNNAGDKWSAFLKEQSTLAQMYPLQEIQNLTVKLQLQALQQNGSSVLSEDKSKRLNTILNTMSTIYSTGKVCNPDAPAECLLLEPGLNEIMANSLDYNERLWAWESWRSEVGKALRPLYEEYVVLKNEMARANHYEDYGDYWRGDYEVNGVDGYDYSRGQLIEDVEHTFEEIKPLYEHLHAYVRAKLMNAYPSYISPIGCLPAHLLGDMWGRFWTNLYSLTVPFGQKPNIDVTDAMVDQAWDAQRIFKEAEKFFVSVGLPNMTQGFWENSMLTDPGNVQKAVCHPTAWDLGKGDFRILMCTKVTMDDFLTAHHEMGHIQYDMAYAAQPFLLRNGANEGFHEAVGEIMSLSAATPKHLKSIGLLSPDFQEDNETEINFLLKQALTIVGTLPFTYMLEKWRWMVFKGEIPKDQWMKKWWEMKREIVGVVEPVPHDETYCDPASLFHVSNDYSFIRYYTRTLYQFQFQEALCQAAKHEGPLHKCDISNSTEAGQKLFNMLRLGKSEPWTLALENVVGAKNMNVRPLLNYFEPLFTWLKDQNKNSFVGWSTDWSPYADGGSGMDEKTTGWRGGHVVEGLAGELEQLRARLEHHPQGQREP
In the case of B2, the Kd with pxENB9-FLS-CT-His [1] was 10500 nM; with pxENB17-RBD-His [2] it was 401 nM. Further, in the assay with pxENB17-RBD-His [3], the “Response, shift in Wavelength (nm)” value was 0.0102 nm.

B3: pxEBN4-ACE2-AAA-His (receptor)
chain: QSTIEEQAKTFLDKFNHEAEDLFYQSSLASWNYNTNITEENVQNMNNAGDKWSAFLKEQSTLAQMYPLQEIQNLTVKLQLQALQQNGSSVLSEDKSKRLNTILNTMSTIYSTGKVCNPDAPAECLLLEPGLNEIMANSLDYNERLWAWESWRSEVGKALRPLYEEYVVLKNEMARANHYEDYGDYWRGDYEVNGVDGYDYSRGQLIEDVEHTFEEIKPLYEHLHAYVRAKLMNAYPSYISPIGCLPAHLLGDMWGRFWTNLYSLTVPFGQKPNIDVTDAMVDQAWDAQRIFKEAEKFFVSVGLPNMTQGFWENSMLTDPGNVQKAVCHPTAWDLGKGDFRILMCTKVTMDDFLTAHHEMGHIQYDMAYAAQPFLLRNGANEGFHEAVGEIMSLSAATPKHLKSIGLLSPDFQEDNETEINFLLKQALTIVGTLPFTYMLEKWRWMVFKGEIPKDQWMKKWWEMKREIVGVVEPVPHDETYCDPASLFHVSNDYSFIRYYTRTLYQFQFQEALCQAAKHEGPLHKCDISNSTEAGQKLFNMLRLGKSEPWTLALENVVGAKNMNVRPLLNYFEPLFTWLKDQNKNSFVGWSTDWSPYADGGGSHHHHHHHH
As to B3, the Kd with commercial RBD protein was 0.2 nM; with pxENB1-His-TEV-FLS-TN [4], 3.9 nM; in the assay with pxENB2-His-TEV-FLS-CT [5], 1.1 nM; with pxENB5-his-TEV-FLS [6], 16.6 nM; in the assay with pxENB8-FLS-TN-His [7], 6.51 nM; with pxENB9-FLS-CT-His [8], less than 0.001 nM. Also, the Kd amounted to 3.19 nM with pxENB12-FLS-His [9]; 0.00709 nM in the assay with pxAM-FLS-A-TB-His; 69.2 nM with pxENB1-His-TEV-FLS-TN [10]; 0.45 nM with pxENB2-His-TEV-FLS-CT [11]; 19.5 nM in the assay with pxENB5-his-TEV-FLS [12]; 12.4 nM with pxENB8-FLS-TN-His [13]. The Kd is less than 0.001 nM with pxENB9-FLS-CT-His [14]; 13.1 nM in the assay with pxENB12-FLS-His [15]; 0.00613 nM with pxEBNCP14-tPa-FLS-CT-His; less than 0.001 nM in assay [16]; 1.46 nM in the assay with pxEBNCP16-IL2-FLS-CT-His; 26.9 nM in assay [17]. Also, the Kd in [18] turned out to be 21.6 nM; with pxEBNCP1-His-TEV-S1, 22.8 nM; in the assay with pxEBNCP2-tPa-His-TEV-S1, 34.2 nM; with pxEBNCP3-S1-His it was 39.6 nM; with pxEBNCP4-tPa-S1-His, 45 nM; with pxENB14-His-TEV-RBD it was 0.156 nM. For the same molecule, the Kd with pxENB17-RBD-His [19] was determined as 0.242 nM; with pxENBCP17-FLS-CT-His-SBP, 51.5 nM; in assay [20] it was 90.8 nM; with pxENBCP20-FLS-CT-His-TST it was 51.6 nM; with pxENB17-RBD-His [21] it was 32.6 nM; with pxENB9-FLS-CT-His [22], 36.6 nM.

B4: pxEBN9-ACE2-AAA-SBP-His (receptor)
chain: QSTIEEQAKTFLDKFNHEAEDLFYQSSLASWNYNTNITEENVQNMNNAGDKWSAFLKEQSTLAQMYPLQEIQNLTVKLQLQALQQNGSSVLSEDKSKRLNTILNTMSTIYSTGKVCNPDAPAECLLLEPGLNEIMANSLDYNERLWAWESWRSEVGKALRPLYEEYVVLKNEMARANHYEDYGDYWRGDYEVNGVDGYDYSRGQLIEDVEHTFEEIKPLYEHLHAYVRAKLMNAYPSYISPIGCLPAHLLGDMWGRFWTNLYSLTVPFGQKPNIDVTDAMVDQAWDAQRIFKEAEKFFVSVGLPNMTQGFWENSMLTDPGNVQKAVCHPTAWDLGKGDFRILMCTKVTMDDFLTAHHEMGHIQYDMAYAAQPFLLRNGANEGFHEAVGEIMSLSAATPKHLKSIGLLSPDFQEDNETEINFLLKQALTIVGTLPFTYMLEKWRWMVFKGEIPKDQWMKKWWEMKREIVGVVEPVPHDETYCDPASLFHVSNDYSFIRYYTRTLYQFQFQEALCQAAKHEGPLHKCDISNSTEAGQKLFNMLRLGKSEPWTLALENVVGAKNMNVRPLLNYFEPLFTWLKDQNKNSFVGWSTDWSPYADGGGSMDEKTTGWRGGHVVEGLAGELEQLRARLEHHPQGQREPHHHHHHHH
As for B4, the Kd in the assay with pxENB9-FLS-CT-His [1] was 13400 nM; in the assay with pxENB17-RBD-His [2], 32600 nM. Moreover, the “Response, shift in Wavelength (nm)” value with pxENB17-RBD-His [3] is 0.0002 nm.

As a reminder, the Kd is the equilibrium constant for the complex coming apart. Low readings indicate higher affinity, high ones lower affinity.
